# From IntAct's records for PubMed 22215984
# B1: Regulatory protein RapF (Bacillus subtilis), P71002 (parent)
# chain: MTGVISSSSIGEKINEWYMYIRRFSIPDAEYLRREIKQELDQMEEDQDLHLYYSLMEFRHNLMLEYLEPLEKMRIEEQPRLSDLLLEIDKKQARLTGLLEYYFNFFRGMYELDQREYLSAIKFFKKAESKLIFVKDRIEKAEFFFKMSESYYYMKQTYFSMDYARQAYEIYKEHEAYNIRLLQCHSLFATNFLDLKQYEDAISHFQKAYSMAEAEKQPQLMGRTLYNIGLCKNSQSQYEDAIPYFKRAIAVFEESNILPSLPQAYFLITQIHYKLGKIDKAHEYHSKGMAYSQKAGDVIYLSEFEFLKSLYLSGPDEEAIQGFFDFLESKMLYADLEDFAIDVAKYYHERKNFQKASAYFLKVEQVRQLIQGGVSLYEIEV
# partner: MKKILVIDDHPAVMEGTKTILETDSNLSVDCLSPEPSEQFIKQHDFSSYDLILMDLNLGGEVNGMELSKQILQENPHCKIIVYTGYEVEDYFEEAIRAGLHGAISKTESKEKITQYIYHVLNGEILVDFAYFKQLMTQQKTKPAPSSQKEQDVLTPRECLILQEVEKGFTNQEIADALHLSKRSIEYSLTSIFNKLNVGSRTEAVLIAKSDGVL
# B2: Transcriptional regulatory protein ComA (Bacillus subtilis), P14204 (parent)
# chain: B1 partner
# partner: B1 chain
# Variants of: B1
# Settings: with cmpa_bacsu comA
row,effect of a mutation on the interaction,Variant
1,decreasing interaction,MTGVISSSSIGEKINEWYMYIRRFSIPDAEYLRREIKQELDQMEEDQDLHLYYSLMEFRHNLMLEYLEPLEKMRIEEAPRLSDLLLEIDKKQARLTGLLEYYFNFFRGMYELDQREYLSAIKFFKKAESKLIFVKDRIEKAEFFFKMSESYYYMKQTYFSMDYARQAYEIYKEHEAYNIRLLQCHSLFATNFLDLKQYEDAISHFQKAYSMAEAEKQPQLMGRTLYNIGLCKNSQSQYEDAIPYFKRAIAVFEESNILPSLPQAYFLITQIHYKLGKIDKAHEYHSKGMAYSQKAGDVIYLSEFEFLKSLYLSGPDEEAIQGFFDFLESKMLYADLEDFAIDVAKYYHERKNFQKASAYFLKVEQVRQLIQGGVSLYEIEV [Q78A]
2,disrupting interaction,MTGVISSSSIGEKINEWYMYIRRFSIPAAEYLRREIKQELDQMEEDQDLHLYYSLMEFRHNLMLEYLEPLEKMRIEEQPRLSDLLLEIDKKQARLTGLLEYYFNFFRGMYELDQREYLSAIKFFKKAESKLIFVKDRIEKAEFFFKMSESYYYMKQTYFSMDYARQAYEIYKEHEAYNIRLLQCHSLFATNFLDLKQYEDAISHFQKAYSMAEAEKQPQLMGRTLYNIGLCKNSQSQYEDAIPYFKRAIAVFEESNILPSLPQAYFLITQIHYKLGKIDKAHEYHSKGMAYSQKAGDVIYLSEFEFLKSLYLSGPDEEAIQGFFDFLESKMLYADLEDFAIDVAKYYHERKNFQKASAYFLKVEQVRQLIQGGVSLYEIEV [D28A]
3,decreasing interaction,MTGVISSSSIGEKINEWYMYIRRFSIADAEYLRREIKQELDQMEEDQDLHLYYSLMEFRHNLMLEYLEPLEKMRIEEQPRLSDLLLEIDKKQARLTGLLEYYFNFFRGMYELDQREYLSAIKFFKKAESKLIFVKDRIEKAEFFFKMSESYYYMKQTYFSMDYARQAYEIYKEHEAYNIRLLQCHSLFATNFLDLKQYEDAISHFQKAYSMAEAEKQPQLMGRTLYNIGLCKNSQSQYEDAIPYFKRAIAVFEESNILPSLPQAYFLITQIHYKLGKIDKAHEYHSKGMAYSQKAGDVIYLSEFEFLKSLYLSGPDEEAIQGFFDFLESKMLYADLEDFAIDVAKYYHERKNFQKASAYFLKVEQVRQLIQGGVSLYEIEV [P27A]
4,disrupting interaction,MTGVISSSSIGEKINEWYMYIRRASIPDAEYLRREIKQELDQMEEDQDLHLYYSLMEFRHNLMLEYLEPLEKMRIEEQPRLSDLLLEIDKKQARLTGLLEYYFNFFRGMYELDQREYLSAIKFFKKAESKLIFVKDRIEKAEFFFKMSESYYYMKQTYFSMDYARQAYEIYKEHEAYNIRLLQCHSLFATNFLDLKQYEDAISHFQKAYSMAEAEKQPQLMGRTLYNIGLCKNSQSQYEDAIPYFKRAIAVFEESNILPSLPQAYFLITQIHYKLGKIDKAHEYHSKGMAYSQKAGDVIYLSEFEFLKSLYLSGPDEEAIQGFFDFLESKMLYADLEDFAIDVAKYYHERKNFQKASAYFLKVEQVRQLIQGGVSLYEIEV [F24A]
5,disrupting interaction,MTGVISSSSIGEKINEWYMYIRRFSIPDAEYLRREIKQELDQMEEDQDLHLYYSLMEFRHNLMLEYAEPLEKMRIEEQPRLSDLLLEIDKKQARLTGLLEYYFNFFRGMYELDQREYLSAIKFFKKAESKLIFVKDRIEKAEFFFKMSESYYYMKQTYFSMDYARQAYEIYKEHEAYNIRLLQCHSLFATNFLDLKQYEDAISHFQKAYSMAEAEKQPQLMGRTLYNIGLCKNSQSQYEDAIPYFKRAIAVFEESNILPSLPQAYFLITQIHYKLGKIDKAHEYHSKGMAYSQKAGDVIYLSEFEFLKSLYLSGPDEEAIQGFFDFLESKMLYADLEDFAIDVAKYYHERKNFQKASAYFLKVEQVRQLIQGGVSLYEIEV [L67A]

# Variants of: B2
# Settings: with rapf_bacsu rapF
row,effect of a mutation on the interaction,Variant
1,decreasing interaction,MKKILVIDDHPAVMEGTKTILETDSNLSVDCLSPEPSEQFIKQHDFSSYDLILMDLNLGGEVNGMELSKQILQENPHCKIIVYTGYEVEDYFEEAIRAGLHGAISKTESKEKITQYIYHVLNGEILVDFAYFKQLMTQQKTKPAPSSQKEQDVLTPRECLILQEVEKGFTNQEIADALHLSKASIEYSLTSIFNKLNVGSRTEAVLIAKSDGVL [R183A]
2,decreasing interaction,MKKILVIDDHPAVMEGTKTILETDSNLSVDCLSPEPSEQFIKQHDFSSYDLILMDLNLGGEVNGMELSKQILQENPHCKIIVYTGYEVEDYFEEAIRAGLHGAISKTESKEKITQYIYHVLNGEILVDFAYFKQLMTQQKTKPAPSSQKEQDVLTPRECLILQEVEKGFTNQEIADALHLSKRSIEYSLASIFNKLNVGSRTEAVLIAKSDGVL [T190A]
3,decreasing interaction,MKKILVIDDHPAVMEGTKTILETDSNLSVDCLSPEPSEQFIKQHDFSSYDLILMDLNLGGEVNGMELSKQILQENPHCKIIVYTGYEVEDYFEEAIRAGLHGAISKTESKEKITQYIYHVLNGEILVDFAYFKQLMTQQKTKPAPSSQKEQDVLTPRECLILQEVEKGFTNQEIADALHLSKRSIEASLTSIFNKLNVGSRTEAVLIAKSDGVL [Y187A]
4,decreasing interaction,MKKILVIDDHPAVMEGTKTILETDSNLSVDCLSPEPSEQFIKQHDFSSYDLILMDLNLGGEVNGMELSKQILQENPHCKIIVYTGYEVEDYFEEAIRAGLHGAISKTESKEKITQYIYHVLNGEILVDFAYFKQLMTQQKTKPAPSSQKEQDVLTPRECLILQEVEKGFTNQEIADALHLSKRSIEYSLTSIFAKLNVGSRTEAVLIAKSDGVL [N194A]
